One series addresses T1, 20S CP α-subunit (M. tuberculosis H37Rv, UniProt P9WHU1 1-248).
T1 construct: also called proteasomal α-subunits; α-ring
Briefly: cryo-EM structure. Conditions: both partners purified.

The series “cross-linking + SEC” deals with the molecule itself. Briefly: cross-linking + SEC.
The series “negative stain EM” deals with the molecule itself. Briefly: negative stain EM.

T1 sequence (P9WHU1 whole entry): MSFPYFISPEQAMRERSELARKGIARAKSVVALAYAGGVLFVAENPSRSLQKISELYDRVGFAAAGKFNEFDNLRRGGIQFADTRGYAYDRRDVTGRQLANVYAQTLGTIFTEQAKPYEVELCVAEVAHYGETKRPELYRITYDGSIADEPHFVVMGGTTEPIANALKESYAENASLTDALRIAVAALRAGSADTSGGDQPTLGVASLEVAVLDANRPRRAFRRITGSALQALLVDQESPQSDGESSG

B1: bacterial proteasome activator Bpa, full-length, wild-type (natural protein)
chain: MVIGLSTGSDDDDVEVIGGVDPRLIAVQENDSDESSLTDLVEQPAKVMRIGTMIKQLLEEVRAAPLDEASRNRLRDIHATSIRELEDGLAPELREELDRLTLPFNEDAVPSDAELRIAQAQLVGWLEGLFHGIQTALFAQQMAARAQLQQMRQGALPPGVGKSGQHGHGTGQYL
notes: also called wild-type Bpa ring; Bpa12; copies: 12
As to B1, in the series with 20S CP α-subunit, the binding result was “binds”.

B2: truncated Bpa variant lacking the flexible N- and C-terminal segments (Bpa36-139) (domain or fragment)
chain: SLTDLVEQPAKVMRIGTMIKQLLEEVRAAPLDEASRNRLRDIHATSIRELEDGLAPELREELDRLTLPFNEDAVPSDAELRIAQAQLVGWLEGLFHGIQTALFA
notes: Dodecameric ring; also called substrate-captured Bpa; copies: 12
The term stoichiometry N denotes the number of molecules, sites or subunits per partner or assembly. As to B2, the figures for the “stoichiometry N” value in “cross-linking + SEC” and in the series “negative stain EM” were 12 and 24, respectively.

These data come from paper PMC11953334, “Substrates bind to residues lining the ring of asymmetrically engaged bacterial proteasome activator Bpa” (Nature Communications, 2025).
